# Measurements published in publication PMC2522368 (Molecular cell, 2008).
# Assays:
# [1] = biological target: talin-R4 (1654-1848) (UniProt P26039); experiment: SPR
# [2] = biological target: talin-R6-R8 (1984-2344) (UniProt P26039); experiment: SPR
# [3] = biological target: talin-RM (1654-2344) (UniProt P26039); experiment: SPR
# [4] = biological target: talin-H (Mus musculus, UniProt P26039); experiment: SPR, lipid immobilised on biotin chip, talin-H injected; assay type: binding; details: labelled compound; 10 mM Hepes, pH 7.4, 37 °C
# Sequence of talin-H (P26039 1-433): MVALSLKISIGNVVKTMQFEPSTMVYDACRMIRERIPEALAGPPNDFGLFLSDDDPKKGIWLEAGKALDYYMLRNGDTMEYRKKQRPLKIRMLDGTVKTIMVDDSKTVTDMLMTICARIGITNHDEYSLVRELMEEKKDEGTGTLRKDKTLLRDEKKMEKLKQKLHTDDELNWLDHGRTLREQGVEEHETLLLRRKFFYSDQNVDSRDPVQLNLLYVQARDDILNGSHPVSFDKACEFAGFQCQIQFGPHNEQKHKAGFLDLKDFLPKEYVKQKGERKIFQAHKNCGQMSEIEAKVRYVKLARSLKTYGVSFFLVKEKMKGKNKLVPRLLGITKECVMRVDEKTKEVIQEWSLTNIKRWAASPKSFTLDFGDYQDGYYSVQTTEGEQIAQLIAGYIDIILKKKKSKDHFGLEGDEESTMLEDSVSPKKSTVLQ
# [5] = biological target: PIPKIγ peptide (Mus musculus) (UniProt O70161); details: cited from earlier work
# Sequence of PIPKIγ peptide (Mus musculus) (O70161 whole entry): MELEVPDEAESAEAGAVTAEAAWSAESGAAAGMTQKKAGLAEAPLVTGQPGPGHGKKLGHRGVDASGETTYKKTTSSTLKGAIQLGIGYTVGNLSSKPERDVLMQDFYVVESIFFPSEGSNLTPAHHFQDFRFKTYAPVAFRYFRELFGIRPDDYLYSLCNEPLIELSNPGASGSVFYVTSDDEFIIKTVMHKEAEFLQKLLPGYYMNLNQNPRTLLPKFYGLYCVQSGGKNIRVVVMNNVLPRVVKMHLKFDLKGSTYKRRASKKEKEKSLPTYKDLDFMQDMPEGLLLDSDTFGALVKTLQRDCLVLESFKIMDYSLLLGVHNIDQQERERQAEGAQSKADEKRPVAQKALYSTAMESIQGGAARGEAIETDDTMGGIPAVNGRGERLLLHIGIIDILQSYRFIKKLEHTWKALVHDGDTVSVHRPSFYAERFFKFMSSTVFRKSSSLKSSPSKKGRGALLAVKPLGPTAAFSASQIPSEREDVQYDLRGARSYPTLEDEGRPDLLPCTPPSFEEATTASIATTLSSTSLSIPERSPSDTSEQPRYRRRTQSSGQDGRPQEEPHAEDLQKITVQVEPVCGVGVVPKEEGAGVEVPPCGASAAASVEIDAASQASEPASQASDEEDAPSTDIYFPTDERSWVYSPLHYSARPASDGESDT
# Sequence of talin-RM (1654-2344) (P26039 1654-2344): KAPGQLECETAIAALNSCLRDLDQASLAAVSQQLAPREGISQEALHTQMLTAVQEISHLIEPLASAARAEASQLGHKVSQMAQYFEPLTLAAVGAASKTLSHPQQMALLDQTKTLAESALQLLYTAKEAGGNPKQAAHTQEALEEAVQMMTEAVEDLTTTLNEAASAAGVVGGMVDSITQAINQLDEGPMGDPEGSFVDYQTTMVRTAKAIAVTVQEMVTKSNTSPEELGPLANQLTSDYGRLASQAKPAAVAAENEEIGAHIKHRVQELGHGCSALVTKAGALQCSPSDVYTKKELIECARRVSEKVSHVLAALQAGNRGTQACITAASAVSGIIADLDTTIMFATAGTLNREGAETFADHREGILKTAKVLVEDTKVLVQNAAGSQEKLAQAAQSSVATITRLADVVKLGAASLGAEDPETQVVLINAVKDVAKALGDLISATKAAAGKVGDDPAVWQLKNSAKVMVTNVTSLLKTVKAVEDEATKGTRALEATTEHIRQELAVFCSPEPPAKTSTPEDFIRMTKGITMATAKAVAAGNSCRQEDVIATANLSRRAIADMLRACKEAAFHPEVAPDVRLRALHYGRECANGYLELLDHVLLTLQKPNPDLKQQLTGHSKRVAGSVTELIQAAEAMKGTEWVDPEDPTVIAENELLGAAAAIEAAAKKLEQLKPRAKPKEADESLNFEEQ
# Sequence of talin-PTB PTB (P26039 309-405): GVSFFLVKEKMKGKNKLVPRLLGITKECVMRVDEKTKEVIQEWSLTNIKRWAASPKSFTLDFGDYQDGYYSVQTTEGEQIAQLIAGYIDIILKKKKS
# Sequence of talin-R6-R8 (1984-2344) (P26039 1984-2344): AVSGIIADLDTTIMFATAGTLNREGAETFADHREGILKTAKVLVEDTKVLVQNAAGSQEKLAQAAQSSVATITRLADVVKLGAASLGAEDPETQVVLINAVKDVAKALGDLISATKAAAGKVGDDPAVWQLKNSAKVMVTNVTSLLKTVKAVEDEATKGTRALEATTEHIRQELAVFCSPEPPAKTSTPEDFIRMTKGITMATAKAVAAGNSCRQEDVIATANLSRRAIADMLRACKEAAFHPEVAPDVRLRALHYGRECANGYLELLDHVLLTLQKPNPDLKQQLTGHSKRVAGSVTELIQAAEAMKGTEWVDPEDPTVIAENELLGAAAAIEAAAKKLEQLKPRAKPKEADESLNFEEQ
# Sequence of talin-R4 (1654-1848) (P26039 1654-1848): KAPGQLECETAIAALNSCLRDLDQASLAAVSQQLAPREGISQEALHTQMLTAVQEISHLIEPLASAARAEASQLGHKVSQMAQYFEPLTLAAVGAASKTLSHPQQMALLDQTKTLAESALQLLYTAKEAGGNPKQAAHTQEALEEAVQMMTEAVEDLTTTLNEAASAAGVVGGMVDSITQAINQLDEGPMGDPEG
Kd [3] [µM],Substance,other results
0.577,"WT talin-PTB (talin-F3/PTB, 306-405) (from UniProt P26039 306-405) (domain or fragment)",Kd [1]: 3.6 µM; Kd [2]: 78 µM
–,biotinylated C6-PIP2,Kd [4]: ~0.0892 µM
0.667,talin-PTB L325R (from UniProt P26039 306-405) (domain or fragment),–
80.9,talin-PTB M319A (from UniProt P26039 306-405) (domain or fragment),–
–,talin-PTB PTB (from UniProt P26039),Kd [5]: 0.27 µM
314,talin-PTB Q381V (from UniProt P26039 306-405) (domain or fragment),–
1660,talin-PTB S365D (from UniProt P26039 306-405) (domain or fragment),–
625,talin-PTB S379R (from UniProt P26039 306-405) (domain or fragment),–
0.529,talin-PTB W359A (from UniProt P26039 306-405) (domain or fragment),–
